Assays:
PD-L1 = PD-L1 (UniProt Q9NZQ7)
PD-L1-FLAG = PD-L1-FLAG (UniProt Q9NZQ7)
PD-L2-FLAG = PD-L2-FLAG (UniProt Q9BQ51)
PD-L2-FLAG, sequence (Q9BQ51 20-273): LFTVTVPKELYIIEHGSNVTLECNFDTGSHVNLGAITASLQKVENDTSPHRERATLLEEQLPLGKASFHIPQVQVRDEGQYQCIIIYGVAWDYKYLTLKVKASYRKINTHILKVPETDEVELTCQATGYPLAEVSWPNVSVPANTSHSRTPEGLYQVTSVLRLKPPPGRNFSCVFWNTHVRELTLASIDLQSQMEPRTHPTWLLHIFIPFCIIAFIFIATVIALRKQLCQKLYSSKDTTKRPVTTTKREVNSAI

E3 ligase ITCH, sequence (chain, as listed by the source): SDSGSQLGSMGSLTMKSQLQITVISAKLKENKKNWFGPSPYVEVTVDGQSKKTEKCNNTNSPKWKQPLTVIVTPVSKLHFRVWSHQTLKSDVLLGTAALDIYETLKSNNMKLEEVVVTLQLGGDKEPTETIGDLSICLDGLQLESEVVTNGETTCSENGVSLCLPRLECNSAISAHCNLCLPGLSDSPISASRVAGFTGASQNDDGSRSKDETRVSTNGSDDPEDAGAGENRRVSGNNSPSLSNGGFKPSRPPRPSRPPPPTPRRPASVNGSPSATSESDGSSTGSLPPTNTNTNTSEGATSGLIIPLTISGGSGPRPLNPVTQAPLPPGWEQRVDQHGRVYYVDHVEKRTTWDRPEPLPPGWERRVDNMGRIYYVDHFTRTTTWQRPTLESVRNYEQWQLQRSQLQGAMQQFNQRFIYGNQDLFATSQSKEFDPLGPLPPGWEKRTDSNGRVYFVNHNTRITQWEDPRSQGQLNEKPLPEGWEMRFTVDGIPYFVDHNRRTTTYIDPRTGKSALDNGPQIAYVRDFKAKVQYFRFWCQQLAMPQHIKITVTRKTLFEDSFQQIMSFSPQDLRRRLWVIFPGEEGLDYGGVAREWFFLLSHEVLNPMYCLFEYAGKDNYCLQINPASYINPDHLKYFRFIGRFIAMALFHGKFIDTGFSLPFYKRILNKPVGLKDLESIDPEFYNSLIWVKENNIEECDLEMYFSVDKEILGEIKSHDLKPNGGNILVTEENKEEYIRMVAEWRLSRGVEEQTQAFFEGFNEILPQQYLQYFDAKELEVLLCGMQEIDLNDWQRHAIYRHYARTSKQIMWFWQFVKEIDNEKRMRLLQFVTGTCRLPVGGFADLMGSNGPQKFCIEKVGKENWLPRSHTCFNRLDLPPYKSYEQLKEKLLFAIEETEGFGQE
PD-L1-FLAG, sequence (Q9NZQ7 19-290): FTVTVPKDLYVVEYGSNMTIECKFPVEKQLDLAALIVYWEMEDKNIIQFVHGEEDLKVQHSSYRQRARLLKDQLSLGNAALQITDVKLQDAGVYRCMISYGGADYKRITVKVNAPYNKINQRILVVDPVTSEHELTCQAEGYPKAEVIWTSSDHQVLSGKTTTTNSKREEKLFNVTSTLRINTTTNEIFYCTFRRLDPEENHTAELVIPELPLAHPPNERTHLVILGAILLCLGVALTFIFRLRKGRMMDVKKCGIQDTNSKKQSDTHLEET
PD-L1, sequence (Q9NZQ7 19-290): as above

E3 ligase ITCH
poly-ubiquitination of endogenous PD-L1 (anti-PD-L1 IP, Western blot of ubiquitin) (PD-L1): knockdown of endogenous ITCH reduced PD-L1 poly-ubiquitination (FIGS. 2F, 2G), while over-expression of ITCH increased PD-L1 poly-ubiquitination (FIG. 2H)
poly-ubiquitination (anti-FLAG IP, Western blot of ubiquitin) (PD-L1-FLAG): co-transfection of ITCH with either PD-L1-FLAG (FIG. 2E) or PD-L2-FLAG (FIG. 9I) led to poly-ubiquitination of PD-L1 or PD-L2, respectively
ubiquitination sites by mass spectrometry (PD-L1-FLAG): Mass spectrometry analysis identified lysine 46 (K46) and K162 of PD-L1 as major ubiquitination sites caused by ITCH over-expression in 293T cells
poly-ubiquitination (anti-FLAG IP, Western blot of ubiquitin) (PD-L2-FLAG): co-transfection of ITCH with either PD-L1-FLAG (FIG. 2E) or PD-L2-FLAG (FIG. 9I) led to poly-ubiquitination of PD-L1 or PD-L2, respectively

Source: patent publication US20250101108
